Measurements taken from the Human Domainome abundance scans (Beltran et al. 2025).
± gives the uncertainty stated by the source.

B1: Tripartite motif-containing protein 49C, residues 87 to 133; numbered along this chain, P0CI26 (parent)
chain: SSEEQMCGTHRETKKIFCEVDRSLLCLLCSSSQEHRYHRHRPIEWAA

Variants of: B1
Assay: abundance fitness (aPCA) (normalised: wild type 0, dead -1); higher = more abundant; growth selection in yeast, the domain comes from the species named
Conditions: Homo sapiens

Abundance fitness, by site and new letter:
E12: K 0.265 ± 0.12, M -0.117 ± 0.12, T 0.047 ± 0.097, D 0.077 ± 0.12, P -0.671 ± 0.11, C -0.01 ± 0.15, H -0.228 ± 0.24, Q 0.066 ± 0.11, W -0.439 ± 0.095, R 0.021 ± 0.079
E19: H -0.944 ± 0.22, C -0.255 ± 0.19, V -0.586 ± 0.095, L -0.651 ± 0.12, M -0.585 ± 0.16, N -0.433 ± 0.2, W -0.647 ± 0.14, D -0.297 ± 0.2, P -0.026 ± 0.13, R -0.602 ± 0.1
C7: S -0.636 ± 0.091, F -0.957 ± 0.12, D -0.589 ± 0.17
R41: G -0.34 ± 0.12, E -0.197 ± 0.14, Y -0.659 ± 0.22, A -0.084 ± 0.12, F -0.29 ± 0.19, V -0.607 ± 0.14, S 0.011 ± 0.12, M -0.39 ± 0.17, C -0.609 ± 0.17, W -0.413 ± 0.2
F17: V -0.328 ± 0.091, C -0.77 ± 0.2, W 0.089 ± 0.12, K -0.274 ± 0.13, M -0.062 ± 0.11, R -0.356 ± 0.093
C29: H -0.418 ± 0.15, T -0.861 ± 0.17, A -0.675 ± 0.092, L -0.977 ± 0.17, K -0.776 ± 0.18, G -0.716 ± 0.082, N -0.816 ± 0.16, E -0.63 ± 0.12, P -0.715 ± 0.19, V -0.959 ± 0.12
A46: G 0.056 ± 0.079, F -0.184 ± 0.19, M -0.008 ± 0.12, W -0.156 ± 0.1, H -0.276 ± 0.26, T 0.194 ± 0.12, L -0.039 ± 0.089, P 0.2 ± 0.1
L25: Y -0.02 ± 0.15, C -0.208 ± 0.17, W -0.962 ± 0.15, N -0.502 ± 0.41, A -0.639 ± 0.12, T -0.612 ± 0.16, P -1.06 ± 0.27, D -0.725 ± 0.23
C18: Y -0.801 ± 0.18, W -0.907 ± 0.13, N -0.286 ± 0.18, E -0.333 ± 0.23, T -0.471 ± 0.11, M -0.674 ± 0.17
E44: V -0.603 ± 0.087, C -0.525 ± 0.11, A -0.411 ± 0.099, K -0.298 ± 0.11, H -0.738 ± 0.15, G -0.181 ± 0.08, M -0.488 ± 0.11
S30: W -0.615 ± 0.18, I -0.435 ± 0.21, Q -0.665 ± 0.14, Y -0.407 ± 0.2, F -0.776 ± 0.16, A 0.203 ± 0.1, T -0.19 ± 0.12, P -0.622 ± 0.12, E -0.165 ± 0.12, N -0.555 ± 0.31
E34: T -0.349 ± 0.1, F -0.748 ± 0.17, L -0.659 ± 0.1, I -0.818 ± 0.19, N -0.417 ± 0.15, W -0.928 ± 0.15, H -0.046 ± 0.17, G -0.492 ± 0.095
K14: T -0.644 ± 0.15, S -0.708 ± 0.1, P -0.431 ± 0.16, M -0.199 ± 0.12, F -0.811 ± 0.23, R 0.02 ± 0.082, E -0.173 ± 0.17, L -0.247 ± 0.093, D -0.303 ± 0.18, V -0.33 ± 0.093
L24: K -0.403 ± 0.14, P -0.217 ± 0.13, I -0.61 ± 0.2, Q -0.159 ± 0.11, S -0.306 ± 0.12, E -0.106 ± 0.12
R39: T 0.02 ± 0.091, A -0.103 ± 0.097, I 0.162 ± 0.14, S 0.083 ± 0.086, F -0.356 ± 0.11, N 0.363 ± 0.12, E 0.203 ± 0.093
Y37: L 0.127 ± 0.07, A 0.181 ± 0.087, I -0.386 ± 0.1, Q 0.155 ± 0.088, F -0.059 ± 0.074, P -0.273 ± 0.076, D 0.176 ± 0.11
R36: A 0.037 ± 0.088, W -0.66 ± 0.11, I -0.217 ± 0.14, L -0.152 ± 0.087, H 0.064 ± 0.15, F -0.607 ± 0.14, P -0.535 ± 0.16
E3: I -0.492 ± 0.22, F -0.346 ± 0.18, P -0.172 ± 0.14, D 0.084 ± 0.17, L -0.176 ± 0.1, K -0.295 ± 0.22, S -0.15 ± 0.098, H -0.246 ± 0.26, V -0.292 ± 0.1
C26: S -0.777 ± 0.14, K -0.894 ± 0.23, W -1.09 ± 0.16, M -1.08 ± 0.25, V -1.1 ± 0.14, Q -0.776 ± 0.36
W45: H 0.361 ± 0.12, P 0.346 ± 0.098, R 0.111 ± 0.08, Q 0.224 ± 0.094, C 0.18 ± 0.12, F 0.153 ± 0.089, D 0.479 ± 0.087, L 0.122 ± 0.078
S23: N -0.835 ± 0.4, I -0.007 ± 0.2, R 0.058 ± 0.093, E 0.155 ± 0.11
Q33: P 0.391 ± 0.13, E 0.081 ± 0.12, D -0.264 ± 0.23, T -0.116 ± 0.11
L28: W -0.368 ± 0.093, Q 0.274 ± 0.13, N 0.075 ± 0.12, T 0.204 ± 0.12, H -0.246 ± 0.2, F -0.422 ± 0.15
A47: D 0.438 ± 0.22, M -0.025 ± 0.18, G -0.078 ± 0.16, C -0.591 ± 0.29, L -0.493 ± 0.15
R22: N 0.019 ± 0.22, T -0.764 ± 0.16, Q 0.117 ± 0.15, S -0.132 ± 0.11, F -0.772 ± 0.23, D -0.101 ± 0.26, E 0.449 ± 0.16
G8: V -0.02 ± 0.085, T -0.042 ± 0.11, N -0.159 ± 0.15, Q -0.104 ± 0.14, C -0.017 ± 0.1, L -0.009 ± 0.086
S31: F -0.313 ± 0.15, E -0.123 ± 0.099, L -0.493 ± 0.098, C -0.194 ± 0.16, P -0.544 ± 0.21
S1: F 0.294 ± 0.23, A -0.49 ± 0.19, L -0.156 ± 0.15, G -0.526 ± 0.41, Y -0.277 ± 0.22
K15: E 0.037 ± 0.12, S -0.147 ± 0.099, V -0.408 ± 0.095, A -0.337 ± 0.1, F -0.32 ± 0.15, T -0.119 ± 0.11, L -0.3 ± 0.089, I -0.327 ± 0.14, W -0.668 ± 0.12, Q -0.264 ± 0.13
I43: W -0.395 ± 0.23, S -0.011 ± 0.27, M -0.37 ± 0.2, P -0.524 ± 0.49
T13: D -0.364 ± 0.14, C -0.22 ± 0.1, M 0.242 ± 0.12, H 0.006 ± 0.16, N -0.431 ± 0.15, G -0.196 ± 0.079, I 0.046 ± 0.089
E4: S -0.244 ± 0.11, F -0.59 ± 0.22, P -0.196 ± 0.12, D -0.035 ± 0.16
M6: T -0.414 ± 0.12, S -0.57 ± 0.12, W -0.651 ± 0.15, I -0.855 ± 0.16, N -0.958 ± 0.3, Q -0.273 ± 0.11, G -0.553 ± 0.099
P42: T -0.065 ± 0.074, M -0.366 ± 0.11, I -0.377 ± 0.09, Y -0.26 ± 0.083, C -0.049 ± 0.089, G -0.007 ± 0.086, S -0.122 ± 0.076, Q -0.081 ± 0.1, K 0.11 ± 0.12
S2: Y -0.647 ± 0.3, L -0.204 ± 0.12, A -0.21 ± 0.1, R -0.268 ± 0.096, K -0.114 ± 0.14, V -0.29 ± 0.11
L27: Y 0.059 ± 0.086, T 0.106 ± 0.081, S 0.058 ± 0.072, D 0.158 ± 0.084, Q 0.135 ± 0.081, N 0.271 ± 0.09
I16: S -0.439 ± 0.094, V -0.129 ± 0.093, C -0.384 ± 0.12, K -0.197 ± 0.12, Y -0.077 ± 0.28, P -0.574 ± 0.13, G -0.554 ± 0.1, L -0.372 ± 0.091, R -0.497 ± 0.084
H40: K -0.908 ± 0.18, P -0.767 ± 0.14, I -0.893 ± 0.25, C -0.623 ± 0.15, S -0.298 ± 0.094, G -0.468 ± 0.078, F -0.709 ± 0.24
S32: C -0.414 ± 0.16, A -0.222 ± 0.095, V -0.301 ± 0.11, W -0.464 ± 0.13, R 0.017 ± 0.096, D -0.041 ± 0.12, I -0.947 ± 0.21, Y -0.224 ± 0.15, H -0.483 ± 0.22
H35: W -0.846 ± 0.14, T -0.929 ± 0.16, F -0.75 ± 0.16, D -0.821 ± 0.17, P -0.676 ± 0.14, C -0.636 ± 0.12, G -0.769 ± 0.094
Q5: L -0.044 ± 0.094, I -0.291 ± 0.27, F -0.424 ± 0.12, D 0.159 ± 0.13, K 0.165 ± 0.16, Y -0.002 ± 0.18, S 0.114 ± 0.098, P -0.251 ± 0.11
D21: E -0.142 ± 0.12, S -0.023 ± 0.094, F -0.562 ± 0.18, K 0.022 ± 0.12, G -0.357 ± 0.081, I -0.789 ± 0.32
T9: M -0.265 ± 0.099, D -0.395 ± 0.16, S -0.127 ± 0.09, L 0.151 ± 0.083, Q 0.057 ± 0.1, V 0.047 ± 0.077, C -0.565 ± 0.26, Y -0.183 ± 0.14, A -0.235 ± 0.091, F -0.469 ± 0.23
H38: G -0.84 ± 0.09, S -0.691 ± 0.097, W -0.708 ± 0.1, K -0.607 ± 0.12
R11: L -0.418 ± 0.11, T -0.135 ± 0.12, G -0.069 ± 0.08, E -0.683 ± 0.14, H 0.154 ± 0.17, N -0.049 ± 0.17, Y -1.07 ± 0.36
H10: K -0.714 ± 0.22, P -0.549 ± 0.13, D -0.303 ± 0.15, Y -0.855 ± 0.16, N -0.836 ± 0.26, W -0.976 ± 0.14, R -0.728 ± 0.095, S -0.613 ± 0.099
V20: G -0.485 ± 0.11, C -0.446 ± 0.093, E 0.101 ± 0.18, D 0.164 ± 0.1, L -0.406 ± 0.076, I -0.144 ± 0.076, Y -0.036 ± 0.083, K 0.161 ± 0.17
